Test results reported in US20230220098A1, “THERAPEUTIC DRUG FOR POLYCYTHEMIA” (PERSEUS PROTEOMICS INC., priority 2019, published 2023).

Tests used:
[1] = tested on: PV patient-derived hematopoietic stem cells; test: EPO-independent erythroblast (BFU-E/CFU-E) colony assay; assay type: cell-based, human
Method: PV patient-derived hematopoietic stem cells are characterized in that BFU-E or CFU-E is formed in the cells even in the absence of erythropoietin (EPO). The activity of TfR436 to inhibit the formation of these colonies was examined.
The peripheral blood of a PV patient, which had been obtained by phlebotomy, was dispensed into three 50-mL centrifuge tubes in an amount of 20 mL each, and an equal amount of PBS (Gibco) was then added to each tube, followed by mixing. Thereafter, 15 mL of LymphoSep, Lymphocyte Separation Media (MP Biomedicals™) was dispensed into […] novel 50-mL centrifuge tubes, and the peripheral blood diluted with PBS was then slowly added thereto in an amount of 30 mL each, and the obtained mixture was then centrifuged at 1,500 rpm at room temperature for 30 minutes. After completion of the centrifugation, the plasma as a supernatant was removed, and a PBMC layer was collected by transfer pipetting. The collected PBMC layer was suspended in 20 mL of PBS+2% FBS (Gibco). The thus obtained suspension was further centrifuged at 1350 rpm at room temperature for 10 minutes, a supernatant was then removed, and the residue was then suspended in 1 to 5 mL of IMDM (Nacalai Tesque)+2% FBS. Using 0.2% Trypan Blue, the number of cells was counted, and the cells were adjusted to 2×10^6 cells/mL by addition of IMDM+2% FBS.
TfR436 and a human IgG1 antibody used as a negative control were each diluted with IMDM+2% FBS to an antibody concentration of […]. MethoCult™ H4534 Classic WithoutEPO (STEMCELL TECHNOLOGIES) was dispensed into seven 14-mL round bottle tubes in an amount of 3 mL each, and 300 jut of the above-prepared PBMC was then added thereto. Thereafter, an antibody-diluted solution or 3.3 μL of IMDM+2% FBS (control) was further added thereto, followed by full mixing. Thereafter, the reaction mixture was seeded on two 35-mm culture dishes in an amount of 1 mL each. This mixture was cultured at 37° C. in a 5% CO2 incubator for 14 days. After completion of the culture, the 35-mm culture dishes were observed under a microscope, and the number of the formed BFU-E or CFU-E colonies was then counted. The colony formation percentage with respect to the number of colonies obtained by a culture without addition of antibodies was then calculated.

HEL cells = test: Combined effects of TfR436 and hydroxyurea on cell growth and cell death; assay type: cell-based; settings: 72 hours
Method: HEL cells were cultured in an RPMI-1640 (Sigma-Aldrich)+10% FBS (Sigma-Aldrich)+1% PenStrep (Gibco) medium, and were then adjusted to 20000 cells/mL with the same medium as described above. Hydroxyurea (Wako Pure Chemical Industries, Ltd.) was weighed and was then dissolved in a concentration of 100 mM in distilled water for injection (Otsuka Pharmaceutical). The thus adjusted cell solution was seeded on a 96-well plate (Thermo SCIENTIFIC) in an amount of 100 μL/well. […]
From the plate after completion of the culture, the cultured cells in each well were dispensed into a V-bottom plate (Costar) in an amount of 100 μL, while pipetting. […] Then, the fluorescence of FL2 and the number of cells were measured. From the obtained results, the number of living cells (PI negative) and the number of dead cells (PI positive) were calculated, and thereafter, Viability (the number of PI-negative cells/the total number of cells×100) (%) and cell death percentage (100−Viability) (%) were calculated. Furthermore, the growth percentage in each well was calculated, when the number of living cells in the cell growth control was set to be 100%. […]

B1: TfR436: anti-human transferrin receptor antibody, VH SEQ ID NO: 7 and VL SEQ ID NO: 8, described in WO2014/073641; called PPMX-T003 in Tables 3 and 4 (antibody, listed as Homo sapiens, V domains shown)
VH: DVQLVQSGGGVVQPGRSLRLSCAASGFPFKSYGMHWVRQAPGKGLEWVAVISYDGSNKYYADSVKGRFTISRDNSKNTLYLQMNSLRGEDTAVYYCARDSNFWSGYYSPVDVWGQGTTVTVSS
VL: NFMLTQPHSVSESPGKTVTISCTRSSGSIASNSVQWYQQRPGSAPITVIYEDTQRPSGVPDRFSGSIDSSSNSASLTISGLQTEDEADYYCQSYDSAYHWVFGGGTKLAVL
formation of erythroblast colonies ([1]; 100 ng/mL or more, 14 days, without EPO): almost completely inhibited
colony formation percentage with respect to culture without addition of antibodies ([1]; pt No. 1, 10 ng/mL): 87.1%
colony formation percentage with respect to culture without addition of antibodies ([1]; pt No. 1, 100 ng/mL): 0.0%
colony formation percentage with respect to culture without addition of antibodies ([1]; pt No. 1, 1000 ng/mL): 0.0%
colony formation percentage with respect to culture without addition of antibodies ([1]; pt No. 2, 10 ng/mL): 149.0%
colony formation percentage with respect to culture without addition of antibodies ([1]; pt No. 2, 100 ng/mL): 2.1%
colony formation percentage with respect to culture without addition of antibodies ([1]; pt No. 2, 1000 ng/mL): 0.0%
colony formation percentage with respect to culture without addition of antibodies ([1]; pt No. 3, 10 ng/mL): 91.7%
colony formation percentage with respect to culture without addition of antibodies ([1]; pt No. 3, 100 ng/mL): 0.0%
colony formation percentage with respect to culture without addition of antibodies ([1]; pt No. 3, 1000 ng/mL): 0.0%
colony formation percentage with respect to culture without addition of antibodies ([1]; pt No. 7, 10 ng/mL): 63.6%
colony formation percentage with respect to culture without addition of antibodies ([1]; pt No. 7, 100 ng/mL): 0.0%
colony formation percentage with respect to culture without addition of antibodies ([1]; pt No. 7, 1000 ng/mL): 0.0%
colony formation percentage with respect to culture without addition of antibodies ([1]; pt No. 9, 10 ng/mL): 63.3%
colony formation percentage with respect to culture without addition of antibodies ([1]; pt No. 9, 100 ng/mL): 0.0%
colony formation percentage with respect to culture without addition of antibodies ([1]; pt No. 9, 1000 ng/mL): 1.0%
colony formation percentage with respect to culture without addition of antibodies ([1]; pt No. 11, 10 ng/mL): 80.8%
colony formation percentage with respect to culture without addition of antibodies ([1]; pt No. 11, 100 ng/mL): 0.0%
colony formation percentage with respect to culture without addition of antibodies ([1]; pt No. 11, 1000 ng/mL): 0.0%
colony formation percentage with respect to culture without addition of antibodies ([1]; pt No. 13, 10 ng/mL): 35.2%
colony formation percentage with respect to culture without addition of antibodies ([1]; pt No. 13, 100 ng/mL): 23.9%
colony formation percentage with respect to culture without addition of antibodies ([1]; pt No. 13, 1000 ng/mL): 19.7%
colony formation percentage with respect to culture without addition of antibodies ([1]; pt No. 14, 10 ng/mL): 68.9%
colony formation percentage with respect to culture without addition of antibodies ([1]; pt No. 14, 100 ng/mL): 0.0%
colony formation percentage with respect to culture without addition of antibodies ([1]; pt No. 14, 1000 ng/mL): 0.0%
colony formation percentage with respect to culture without addition of antibodies ([1]; pt No. 15, 10 ng/mL): 6.7%
colony formation percentage with respect to culture without addition of antibodies ([1]; pt No. 15, 100 ng/mL): 0.0%
colony formation percentage with respect to culture without addition of antibodies ([1]; pt No. 15, 1000 ng/mL): 3.3%
colony formation percentage with respect to culture without addition of antibodies ([1]; pt No. 18, 10 ng/mL): 47.6%
colony formation percentage with respect to culture without addition of antibodies ([1]; pt No. 18, 100 ng/mL): 0.0%
colony formation percentage with respect to culture without addition of antibodies ([1]; pt No. 18, 1000 ng/mL): 0.0%
colony formation percentage with respect to culture without addition of antibodies ([1]; pt No. 20, 10 ng/mL): 143.8%
colony formation percentage with respect to culture without addition of antibodies ([1]; pt No. 20, 100 ng/mL): 0.0%
colony formation percentage with respect to culture without addition of antibodies ([1]; pt No. 20, 1000 ng/mL): 0.0%
cell growth inhibition, combined use with hydroxyurea (HEL cells; Table 3): synergistic cell growth inhibition effects were observed from a half or more of combined uses
cell death percentage, combined use with hydroxyurea (HEL cells; all combined uses except lowest concentrations of both, Table 4): synergistic cell death-enhancing effects
